# Target: T1, recombinant αVβ5 human integrin extracellular domains (human, UniProt P06756 31-992; P18084 24-719)
# T1 construct: integrin alpha-V, human, extracellular domain; integrin beta-5, human, extracellular domain; also called integrin αVβ5 heterodimer; source: bought: R&D Systems
# Assay: single-molecule magnetic tweezers; PilY1 construct tethered between HaloTag-ligand glass and streptavidin-coated superparamagnetic bead, held at constant low force (5-6 pN, below 7 pN) where I1 and I2 fold and unfold; 200 nM integrin added in binding buffer (10 mM Hepes pH 7.2, 150 mM NaCl, 10 mM ascorbic acid, 2 mM CaCl2, 1 mM MgCl2, 1 mM MnCl2); binding read as shortening of the unfolded extension of I2
# Details: both partners purified
# T1 sequence (P06756 31-992, chain 1 of 2): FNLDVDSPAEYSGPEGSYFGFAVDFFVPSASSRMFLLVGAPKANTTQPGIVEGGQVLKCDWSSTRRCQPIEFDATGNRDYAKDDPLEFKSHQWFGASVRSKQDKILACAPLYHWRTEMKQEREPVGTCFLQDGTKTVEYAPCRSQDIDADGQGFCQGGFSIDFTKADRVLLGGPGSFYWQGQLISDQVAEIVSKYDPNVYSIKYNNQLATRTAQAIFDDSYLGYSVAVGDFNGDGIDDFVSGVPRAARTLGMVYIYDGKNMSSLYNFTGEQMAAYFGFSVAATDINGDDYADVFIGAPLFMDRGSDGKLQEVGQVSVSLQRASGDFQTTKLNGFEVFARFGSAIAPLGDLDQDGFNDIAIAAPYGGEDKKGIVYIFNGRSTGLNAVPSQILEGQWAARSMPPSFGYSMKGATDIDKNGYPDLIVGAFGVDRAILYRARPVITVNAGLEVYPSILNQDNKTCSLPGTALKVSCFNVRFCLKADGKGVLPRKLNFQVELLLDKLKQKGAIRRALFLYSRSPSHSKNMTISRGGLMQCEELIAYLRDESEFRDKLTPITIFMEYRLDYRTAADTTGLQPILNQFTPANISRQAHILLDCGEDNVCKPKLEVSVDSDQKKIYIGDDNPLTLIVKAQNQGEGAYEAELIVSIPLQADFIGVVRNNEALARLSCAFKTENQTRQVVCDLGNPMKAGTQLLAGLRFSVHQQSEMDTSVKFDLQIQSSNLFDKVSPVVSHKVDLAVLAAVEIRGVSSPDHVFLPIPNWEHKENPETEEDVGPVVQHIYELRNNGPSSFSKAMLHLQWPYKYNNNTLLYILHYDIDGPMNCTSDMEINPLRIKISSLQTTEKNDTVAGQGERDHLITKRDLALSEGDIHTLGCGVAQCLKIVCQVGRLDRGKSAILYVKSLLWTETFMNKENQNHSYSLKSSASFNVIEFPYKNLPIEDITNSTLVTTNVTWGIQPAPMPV
# T1 sequence (P18084 24-719, chain 2 of 2): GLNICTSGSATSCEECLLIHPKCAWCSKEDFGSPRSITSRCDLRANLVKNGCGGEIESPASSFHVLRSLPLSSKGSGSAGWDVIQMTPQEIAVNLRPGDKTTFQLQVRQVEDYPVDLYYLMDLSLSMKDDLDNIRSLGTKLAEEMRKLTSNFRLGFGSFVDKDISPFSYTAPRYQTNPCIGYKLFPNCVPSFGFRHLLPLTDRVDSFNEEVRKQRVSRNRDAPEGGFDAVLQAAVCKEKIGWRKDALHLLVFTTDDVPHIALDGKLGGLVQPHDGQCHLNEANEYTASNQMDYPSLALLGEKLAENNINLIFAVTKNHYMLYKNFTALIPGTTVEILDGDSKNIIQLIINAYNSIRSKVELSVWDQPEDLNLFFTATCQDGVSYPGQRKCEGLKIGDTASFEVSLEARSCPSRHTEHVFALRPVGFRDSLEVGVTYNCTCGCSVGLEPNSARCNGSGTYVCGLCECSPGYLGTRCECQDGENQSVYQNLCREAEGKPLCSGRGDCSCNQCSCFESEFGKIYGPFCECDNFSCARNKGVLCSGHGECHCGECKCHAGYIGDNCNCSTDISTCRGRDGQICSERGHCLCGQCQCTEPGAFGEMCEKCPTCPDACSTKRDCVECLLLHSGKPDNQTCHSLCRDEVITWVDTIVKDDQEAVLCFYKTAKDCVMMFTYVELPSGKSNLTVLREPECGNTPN
binder,measurement,value
"PilY1^501−1161 chimeric polyprotein (HaloTag-(I32)2-PilY1 residues 501-1161-(I32)2-HisTag-AviTag) (domain or fragment, biotin on the AviTag, gene optimized for expression in E. coli; The HisTag lies between the last I32 and the AviTag; also called PilY1 C-terminal section; source: E. coli BL21 Star, purified (HisPur Cobalt resin, Superdex 200 SEC), biotinylated in vitro; not shown: HaloTag, N-terminal, kept; 2x human titin I32 domain, N-terminal, kept; 2x human titin I32 domain, C-terminal, kept; AviTag (biotinylated), C-terminal, kept) ISSSLQEDDTGDKLTRFAYQTSFASDKNWAGDLTRYSLTTQDKATVQTKLWSAQSILDAMPNGGAGRKIMMAGSGTSGLKEFTWGSLSADQQRQLNRDPDRNDVADTKGQDRVAFLRGDRRKENSDNFRTRNSILGDIINSSPATVGKAQYLTYLAQPIEPSGNYSTFAEAQKTRAPRVYVGANDGMLHGFDTDGNETFAFIPSAVFEKLHKLTARGYQGGAHQFYVDGSPVVADAFFGGAWHTVLIGSLRAGGKGLFALDVTDPANIKLLWEIGVDQEPDLGYSFPKPTVARLHNGKWAVVTGNGYSSLNDKAALLIIDLETGAITRKLEVTGRTGVPNGLSSPRLADNNSDGVADYAYAGDLQGNLWRFDLIAGKVNQDDPFSRANDGPAVASSFRVSFGGQPLYSAVDSAGAAQAITAAPSLVRHPTRKGYIVIFGTGKYFENADARADTSRAQTLYGIWDQQTKGEAAGSTPRLTRGNLQQQTLDLQADSTFASTARTIRIASQNPVNWLNNDGSTKQSGWYLDFMVNGTLKGEMLIEDMIAIGQVVLLQTITPNDDPCADGASNWTYGLDPYTGGRTSFTVFDLARQGVVDSKSDYSYNKQNVAVSGTEQKGLGGLTLSTNEQGNPEVCSSGECLTVNPGPNTRGRQNWRPIEGKN",binding result,binds
